Biological target: endogenous FcγRI on human monocytes (human (endogenous in blood monocytes)) (UniProt P12314)
Chain of UniProt P12314 (P12314 16-374): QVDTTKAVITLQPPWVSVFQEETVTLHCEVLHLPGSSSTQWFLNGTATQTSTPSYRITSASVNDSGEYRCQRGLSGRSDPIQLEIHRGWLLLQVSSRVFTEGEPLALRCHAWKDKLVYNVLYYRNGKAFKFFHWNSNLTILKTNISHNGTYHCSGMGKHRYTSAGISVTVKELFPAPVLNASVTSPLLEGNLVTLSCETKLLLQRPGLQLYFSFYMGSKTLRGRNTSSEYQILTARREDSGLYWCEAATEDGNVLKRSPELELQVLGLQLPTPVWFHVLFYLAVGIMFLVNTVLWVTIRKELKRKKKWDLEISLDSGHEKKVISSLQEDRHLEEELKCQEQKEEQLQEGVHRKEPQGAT

**Q.** For “Serum Amyloid P component (SAP), wildtype (from UniProt P02743 20-223) (natural protein)”, which IC50 of inhibition of fibrocyte differentiation of human PBMCs is on record?
**A.** The IC50 of inhibition of fibrocyte differentiation of human PBMCs was 2.9 nM.

Reference: PMC4120242
